In patent US20230227537A1 (VIB VZW, published 2023):
Where “and” joins values, the source holds several entries; their conditions need not be identical. Equal values may be shown once. Read-outs that look alike come from different tables or passages of the source.

Columns and labels:
BSA [1] = target: T1, BSA (Bos taurus, UniProt P02769); assay: ELISA on coated BSA, anti-VHH-HRP, OD450 [upper graph]
T1 construct: coated on the ELISA plate; also called negative control antigen

[2] = target: T2, Mouse IgG1 Fc fused SARS-CoV-2 RBD (Sino Biological) (SARS-CoV-2; mouse, UniProt P0DTC2 330-518); assay: ELISA on coated SARS-CoV-2 RBD-muFc, anti-VHH-HRP, OD450 [upper graph]
[3] = target: SARS-CoV-2 RBD protein Avi-tag biotinylated (AcroBiosystems SPD-C82E9) (SARS-CoV-2, UniProt P0DTC2 330-518); assay: competition AlphaLISA; competitor human ACE2-mFc
[4] = target: T2, Mouse IgG1 Fc fused SARS-CoV-2 RBD …; assay: ELISA on coated SARS-CoV-2 RBD-muFc, anti-VHH-HRP, OD450 [lower graph]
BSA [5] = target: T1, BSA; assay: ELISA on coated BSA, anti-VHH-HRP, OD450 [lower graph]
[6] = target: T2, Mouse IgG1 Fc fused SARS-CoV-2 RBD …
[7] = target: T3, WT SARS-CoV-2 RBD displayed on Saccharomyces cerevisiae (SARS-CoV-2, UniProt P0DTC2 331-518); assay: flow cytometry, yeast cells displaying WT RBD
[8] = target: T3, WT SARS-CoV-2 RBD displayed on …
[9] = target: T2, Mouse IgG1 Fc fused SARS-CoV-2 RBD …; assay: BLI, RBD-mFc on AMC tips, global 1:1 fit
[10] = target: SARS-CoV-2 spike, full length, on cells or on pseudotyped/authentic virus (SARS-CoV-2, UniProt P0DTC2 14-1273); assay: cell-based or functional assay

T1 sequence (P02769 25-607 limits assumed): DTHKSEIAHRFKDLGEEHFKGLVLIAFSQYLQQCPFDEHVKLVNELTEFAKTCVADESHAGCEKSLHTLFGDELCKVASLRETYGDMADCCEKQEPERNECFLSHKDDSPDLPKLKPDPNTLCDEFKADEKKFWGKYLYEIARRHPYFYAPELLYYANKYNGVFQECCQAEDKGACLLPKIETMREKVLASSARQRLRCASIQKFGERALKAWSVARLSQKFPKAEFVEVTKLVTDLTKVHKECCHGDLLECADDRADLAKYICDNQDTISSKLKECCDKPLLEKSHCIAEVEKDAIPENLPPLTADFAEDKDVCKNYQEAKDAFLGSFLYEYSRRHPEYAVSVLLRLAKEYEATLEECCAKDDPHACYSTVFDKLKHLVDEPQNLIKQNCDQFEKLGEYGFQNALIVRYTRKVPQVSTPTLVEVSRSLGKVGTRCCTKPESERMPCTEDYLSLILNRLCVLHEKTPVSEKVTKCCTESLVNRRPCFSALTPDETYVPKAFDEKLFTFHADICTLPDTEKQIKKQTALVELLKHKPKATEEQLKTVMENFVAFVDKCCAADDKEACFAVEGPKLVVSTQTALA

| Binder | binding result (BSA [1]) | % inhibition [3] [%] | IC50 [3] [nM] | also measured |
| --- | --- | --- | --- | --- |
| VHH3.36 (VHH) VHH: QVQLQESGGGLVQAGDSLRLSCVVSGGTFSSYAMGWFRQAPGKERELVAAINWGGISVYYADSVKGRFTISRDNAENTVYLQMNSLKPEDTAVYYCAADPKGWSEWDMEYWGKGTQVTVSS | no binding (tested: about 20 µg/ml) | 100 | 0.562 | EC50 (read off the curve) [2]: ~0.05 µg/mL |
| VHH3.149 (VHH) VHH: QVQLQESGGGLVQAGGSLKLSCAASGRTFSSYALGWFRQAPGTEREFVSAINWFGAPTYYADSVKGRFTISRDNAKNTVYLQMDNLKPEDTAVYYCAADSKGWDPQDMDYWGKGTQVTVSS |  | 98 | 0.902 | EC50 (read off the curve) [4]: ~0.006 µg/mL; binding result (BSA [5]): no binding (tested: about 20 µg/ml) |
| VHH3.115 (VHH) VHH: QVQLQESGGGLVQTGGSLRLSCAASGLTFSDIAMGWFRQAPGREREFVATISWSGGGTYYAEPVRGRFAISRDNAKNTVYLQMNSLKPEDTAVYYCAAAGAGTVVSEWDYDYDYWGQGTQVTVSS |  | 100 | 1.08 | EC50 (read off the curve) [4]: ~0.006 µg/mL; binding result (BSA [5]): no binding (tested: about 20 µg/ml) |
| VHH72 - hIgG1.Hinge-hIgG1.Fc (Fc fusion) VHH-Fc chain: QVQLQESGGGLVQAGGSLRLSCAASGRTFSEYAMGWFRQAPGKEREFVATISWSGGSTYYTDSVKGRFTISRDNAKNTVYLQMNSLKPDDTAVYYCAAAGLGTVVSEWDYDYDYWGQGTQVTVSS |  |  |  | Kd [6]: 0.0874 nM and 0.0895 nM; koff [6]: 0.000252 s⁻¹ and 0.000288 s⁻¹; kon [6]: 2.88e+06 M⁻¹ s⁻¹ and 3.22e+06 M⁻¹ s⁻¹ |
| parental VHH72-hIgG1 Fc (P. pastoris supernatant) (Fc fusion) QVQLQESGGGLVQAGGSLRLSCAASGRTFSEYAMGWFRQAPGKEREFVATISWSGGSTYYTDSVKGRFTISRDNAKNTVYLQMNSLKPDDTAVYYCAAAGLGTVVSEWDYDYDYWGQGTQVTVSS |  |  |  | Kd [6]: 0.0786 nM and 0.0765 nM; koff [6]: 0.000261 s⁻¹ and 0.000283 s⁻¹; kon [6]: 3.33e+06 M⁻¹ s⁻¹ and 3.7e+06 M⁻¹ s⁻¹ |
| VHH72_h1(S56A) (VHH) VHH: EVQLVESGGGLVQPGGSLRLSCAASGRTFSEYAMGWFRQAPGKEREFVATISWSGGATYYTDSVKGRFTISRDNAKNTVYLQMNSLRPEDTAVYYCAAAGLGTVVSEWDYDYDYWGQGTLVTVSS | no binding (tested: about 20 µg/ml) |  |  |  |
| VHH2.50 (VHH) VHH: QVQLQESGGGLVQAGGSLRLSCAASGRTFSSIAMGWFRQAPGKEREFVATISWSGGSTYYADSVKGRFTISRDNAKNTVYLQMNSLKPEDTAVYYCAAAGLGTVVSEWDYDYDYWGQGTQVTVSS |  | 79 | 34.2 |  |
| VHH3.29 (VHH) VHH: QVQLQESGGGLVQAGGSLRLSCVASGRTFSSGGMGWFRQAPGQEREFVAGIGWAGLSSYYLDSVKGRFTISLDNAKNTVYLQMNMLKPEDTGVYYCAADDHGWSAAGMDYLGQGTQVTVSS | no binding (tested: about 20 µg/ml) | 97 | 1 | EC50 (read off the curve) [2]: ~0.03 µg/mL |
| VHH3.77 (VHH) VHH: QVQLQESGGGLVQAGGSLRLSCVSSGRAFGNGAVGWFRQGPGRPREFVATVSWNGGGTYFAESVRGRFTISRDNAKNTVYLQMNNLKPEDTAVYYCALAGEGTVVSEWDYDYEYWGQGTQVTVSS |  | 97 | 0.723 | EC50 (read off the curve) [4]: ~0.03 µg/mL; binding result (BSA [5]): no binding (tested: about 20 µg/ml) |
| VHH3BE4 (VHH) VHH: QVQLQESGGGLVQAGGSLRLSCVASGRAFGNGAVGWFRQAPGREREFVATVSWNGGGTYYAESVRGRFTISRDNAKSTVYLQMNSLKPEDTAVYYCASAGEGTVVSEWDYDYDYWGQGTQVTVSS |  | 100 | 0.634 |  |
| VHH3.17 (VHH) VHH: QVQLQESGGGLVEAGGSLTLSCAASGRAFGDGAVGWFRQGPGRPREFVATVSWNGGGTYFAESVRGRFTISRDNAKNTVYLQMNNLKPEDTAVYYCALAGEGTVVSEWDYDYEYWGQGTQVTVSS | no binding (tested: about 20 µg/ml) | 99 | 1.03 | EC50 (read off the curve) [2]: ~0.05 µg/mL |
| VHH3.144 (VHH) VHH: QVQLQESGGGLVQAGGSLRLSCVASGRAFGNGAVGWFRQAPGREREFVATVSWNGGGTYYAESVRGRFTISRDNAKSTVYLQMNSLKPEDTAVYYCASAGEGTVVSEWDYDYDYWGQGTQVTVSS |  | 100 | 1.12 | binding result (BSA [5]): no binding (tested: about 20 µg/ml) |
| VHH3.38 (VHH) VHH: QVQLQESGGGLVQAGGSLRLSCAASGGTFNNYAMAWFRQAPGQERELVAAMFWSGLPKYYADSVKGRFTISTDDAKNTVYLQMNGLKPEDTAVYYCAADSRGWSDVGGMDYWGKGTQVTVSS | no binding (tested: about 20 µg/ml) | 99 | 2.01 | concentration at which binding was just below saturation [7]: 10 ng/mL; EC50 (read off the curve) [2]: ~0.04 µg/mL; EC50 (read off the curve) [8]: ~0.001 µg/mL |
| VHH3.47 (VHH) VHH: QVQLQESGGGLVQAGDSLRLSCAASGHNFSTYAMAWFRQAPGTERELVAAISENDVMRYYADSVKGRFTISRDNAKNMAYLQMNSLKVEDTAVYLCAADPKGWSEWDMDYWGKGTQVTVSS |  | 100 | 0.729 | EC50 (read off the curve) [4]: ~0.03 µg/mL |
| VHH3.83 (VHH) VHH: QVQLQESGGGLVQPGDSLRLSCVLSGGVFTSYAMGWFRQAPGKEREFLAAITFNSDATYYADSVKGRFTISRDNAKNTAYLQMNSLKPNDTAVYSCAAGGNHYNPQYYHDYDKYDHWGQGTQVTVSS |  | 74 | 0.46 | concentration at which binding was just below saturation [7]: 10 ng/mL; EC50 (read off the curve) [8]: ~0.003 µg/mL |
| VHH3.35 (VHH) VHH: QVQLQESGGGLVQAGGSLTLSCEVSGRTNDNYGVGWFRQVPGAERELVAAIRWSSISRYYKDSVKGRFTISRDNAKNTVYLQMDMLKAEDTAVYYCAADPAGWSEFGMEYWGKGTQVTVSS | no binding (tested: about 20 µg/ml) | 100 | 1.06 | EC50 (read off the curve) [2]: ~0.04 µg/mL |
| VHH3.55 (VHH) VHH: QVQLQESGGGLVQAGGSLRLSCEVSGRTNDNYGVGWFRQVPGAERELVAAIRWSSISRYYKDSVKGRFTISRDNAKNTVYLQMDMLKPEDTAAYYCAADPAGWSEFGMEYWGKGTQVTVSS |  | 100 | 0.817 | concentration at which binding was just below saturation [7]: 10 ng/mL; EC50 (read off the curve) [4]: ~0.01 µg/mL; binding result (BSA [5]): no binding (tested: about 20 µg/ml); EC50 (read off the curve) [8]: ~0.002 µg/mL |
| D72-13: VHH72-h1_(G4S)3-VHH72-h1_GS_hIgG1hinge-hIgG1Fc (Fc fusion, ExpiCHO; tetravalent) EVQLVESGGGLVQPGGSLRLSCAASGRTFSEYAMGWFRQAPGKEREFVATISWSGGSTYYTDSVKGRFTISRDNAKNTVYLQMNSLRPEDTAVYYCAAAGLGTVVSEWDYDYDYWGQGTLVTVSSGGGGSGGGGSGGGGSEVQLVESGGGLVQPGGSLRLSCAASGRTFSEYAMGWFRQAPGKEREFVATISWSGGSTYYTDSVKGRFTISRDNAKNTVYLQMNSLRPEDTAVYYCAAAGLGTVVSEWDYDYDYWGQGTLVTVSSGS |  |  |  | Kd [9]: < 0.001 nM; koff [9]: < 1e-07 s⁻¹; kon [9]: 2.65e+06 M⁻¹ s⁻¹; PRNT50, authentic SARS-CoV-2 [10]: 0.1 µg/mL |
